Measured values as given in patent US20220002363A1, “COMPOSITIONS AND METHODS FOR TREATING PULMONARY DISEASE” (United States Government As Represented By The Department …, priority 2020, published 2022).
Entries after “also recorded” stand apart in the source; their conditions may differ.

System: LPS-treated C57BL/6 mice
Test: Oropharyngeal LPS lung injury model in C57BL/6 mice treated with mut-sFasL
Format: in vivo, mouse
Conditions: for pro-injury or pro-inflammatory effects: normal lungs / administered 24 hours after intratracheal LPS, any dose
Description: FIGS. 5A-E show the effects of mut-sFasL on markers of lung inflammation in LPS-treated mice. C57BL/6 mice received oropharyngeal instillations of either PBS or LPS, 2.5 μg/mL. Four hours later some of the mice received oropharyngeal instillations of PBS or mut-sFasL at concentrations of 10 and 100 ng/g and were euthanized 24 hours after the initial LPS/PBS instillations (“early” group). Other mice received the PBS or mut-sFasL (same dose range) 24 hours after LPS/PBS and were euthanized 48 hours after the original LPS instillation (“late” group). N=6 for the groups. In the “late” group, treatment with 100 ng/g mut-sFasL reduced BAL total cells (FIG. 5A), lung homogenate MPO activity (FIG. 5B), and the BAL concentrations of TNF-α, MIP-1β and MCP-1 (FIGS. 5C-E). Data were analyzed by 2-way ANOVA with Dunnet's post hoc analysis; comparisons made to 0 ng/mL for each condition. Data are reported as box plots, in which the box depicts the 25th to 75th percentiles and the lines the min to max range. *=P<0.05; **=P<0.01, ***P<0.001.
FIGS. 6A-D show the effects of mut-sFasL in LPS treated mice. C57BL/6 mice received oropharyngeal instillations of either PBS, or LPS, 2.5 μg/mL. Four hours later some of the mice received oropharyngeal instillations of PBS or mut-sFasL at concentrations of 10 and 100 ng/g and were euthanized 24 hours after the initial LPS/PBS instillations (“early” group). Other mice received the PBS or mut-sFasL (same dose range) 24 hours after LPS/PBS and were euthanized 48 hours after the original LPS instillation (“late” group). N=6 for all groups. […] The administration of mut-sFasL had no effect total BAL protein (FIG. 6B), BAL IgM (FIG. 6C) or total lung homogenate caspase 3/7 activity (FIG. 6D). Data are reported as box plots, in which the box depicts the 25th to 75th percentiles and the lines the min to max range. Data were analyzed by 2-way ANOVA with Dunnett's post hoc analysis; comparisons were made to 0 ng/mL for each condition.
Animal studies. Mice were housed in conventional cages with ad libitum access to tap water and standard chow, in humidity-controlled (50%) and temperature-controlled (22° C.-23° C.) rooms with 12 hours/12 hours light/dark cycles. In the morning, male C57BL/6J mice (Jackson Laboratories, Bar Harbor Me.) weighing […] were anesthetized with 4% inhaled isoflurane and randomized to treatment for one oropharyngeal instillations of either PBS, or LPS, 2.5 μg/mL (Sigma-Aldrich, St. Louis Mo.) (Time=0 hr). The PBS group was instilled first to avoid cross-contamination with LPS. The mice were allowed to recover from anesthesia, given full access to food and water. […] Some of the mice received oropharyngeal instillations of mut-sFasL at 4 hr and were euthanized at 24 hr (“early” group). Other mice received oropharyngeal mut-sFasL at 24 hours and were euthanized at 48 hr (“late” group). In both cases, mut-sFasL doses were 0, 30 and 100 ng/mL. The number of mice used per group was 6, and the total number of mice was 54.
Following instillations, the mice were monitored for signs of discomfort every 15 minutes during the first hour, and then every four hours during daytime. The primary monitoring parameters were loss of prone posture, loss of movement with mild physical stimulation, weight loss of >20% (weight was measured once per day) and severe respiratory distress. Secondary monitoring parameters included ruffled fur, nasal or ocular discharge and an abnormal respiratory pattern. The presence of one major parameter or two minor parameters was considered an indication for euthanasia, but no mice met these criteria. […]

[1] = LPS, 24 hr (early group), mut-sFasL 30
[2] = LPS, 24 hr (early group), mut-sFasL 100
[3] = LPS, 48 hr (late group), mut-sFasL 30
[4] = LPS, 48 hr (late group), mut-sFasL 100

B1: mut-sFasL: mutant sFasL molecule in which 8 charged amino acids in the 26 amino acid stalk region were changed to alanine (protein)
chain: QLFALQAALAALAASTSQMATASSLAKQIGHPSPPPEKKELRKVAHLTGKSNSRSMPLEWEDTYGIVLLSGVKYKKGGLVINETGLYFVYSKVYFRGQSCNNLPLSHKVYMRNSKYPQDLVMMEGKMMSYCTTGQMWARSSYLGAVFNLTSADHLYVNVSELSLVNFEESQTFFGLYKL
**Q.** With B1 as the molecule, how does the “BAL cytokine concentration IL-1β” value [1] read?
**A.** The value was 14.3 ± 10.6.

**Q.** And the “BAL cytokine concentration KC” value [1]?
**A.** Its value is 118.4 ± 43.7.

**Q.** And the “BAL cytokine concentration MIP-1α” value [1]?
**A.** The value was 47.9 ± 10.6.

**Q.** What about the “BAL cytokine concentration MIP-2” value [1] of the same molecule?
**A.** The value was 78.0 ± 28.1.

**Q.** What about the “BAL cytokine concentration IL-1β” value [2] of the same molecule?
**A.** Its value is 18.6 ± 5.5.

**Q.** And the “BAL cytokine concentration KC” value [2]?
**A.** The value was 154.4 ± 94.3.

**Q.** And the “BAL cytokine concentration MIP-1α” value [2]?
**A.** Its value is 85.3 ± 20.0.

**Q.** What about the “BAL cytokine concentration MIP-2” value [2] of the same molecule?
**A.** Its value is 124.1 ± 29.1.

**Q.** What about the “BAL cytokine concentration IL-1β” value [3] of the same molecule?
**A.** The value was 37.8 ± 23.3.

**Q.** What about the “BAL cytokine concentration KC” value [3] of the same molecule?
**A.** The value was 113.2 ± 55.8.

**Q.** And the “BAL cytokine concentration MIP-1α” value [3]?
**A.** Its value is 154.5 ± 78.7.

**Q.** What about the “BAL cytokine concentration MIP-2” value [3] of the same molecule?
**A.** Its value is 146.7 ± 72.7.

**Q.** And the “BAL cytokine concentration IL-1β” value [4]?
**A.** The value was 44.5 ± 23.1.

**Q.** What about the “BAL cytokine concentration KC” value [4] of the same molecule?
**A.** The value was 136.9 ± 51.9.

**Q.** What about the “BAL cytokine concentration MIP-1α” value [4] of the same molecule?
**A.** Its value is 153.9 ± 42.4.

**Q.** What about the “BAL cytokine concentration MIP-2” value [4] of the same molecule?
**A.** Its value is 135.7 ± 29.9.

**Q.** What about the “BAL IgM” value (LPS-induced increase) of the same molecule?
**A.** The value was “did not affect; also recorded: had no effect”.

**Q.** And the BAL total protein (LPS-induced increase)?
**A.** Its BAL total protein is “did not affect; also recorded: had no effect”.

**Q.** What about the “lung homogenate caspase-3/7 activity” value (LPS-induced increase) of the same molecule?
**A.** The value was “did not affect; also recorded: had no effect”.

**Q.** And the “BAL IL-1β (in words)” value (LPS-treated mice)?
**A.** Its value is “increase”.

**Q.** And the “BAL KC (in words)” value (LPS-treated mice)?
**A.** Its value is “not affected”.

**Q.** What about the “BAL MIP-1α (in words)” value (LPS-treated mice) of the same molecule?
**A.** The value was “increase”.

**Q.** What about the “BAL MIP-2 (in words)” value (LPS-treated mice) of the same molecule?
**A.** Its value is “not affected”.

**Q.** And the weight loss (LPS-treated mice, percent change from initial weight)?
**A.** Its weight loss is “not affected; also recorded: Weight loss was similar regardless of treatment”.

**Q.** What about the “BAL cytokine concentration IL-1β” value (PBS group, mut-sFasL 30) of the same molecule?
**A.** The value was 0.2 ± 0.0.

**Q.** What about the “BAL cytokine concentration KC” value (PBS group, mut-sFasL 30) of the same molecule?
**A.** Its value is 1.2 ± 0.6.

**Q.** What about the “BAL cytokine concentration MIP-1α” value (PBS group, mut-sFasL 30) of the same molecule?
**A.** The value was 0.08 ± 0.03.

**Q.** What about the “BAL cytokine concentration MIP-2” value (PBS group, mut-sFasL 30) of the same molecule?
**A.** The value was 0.1 ± 0.0.

**Q.** And the “BAL cytokine concentration IL-1β” value (PBS group, mut-sFasL 100)?
**A.** Its value is 0.2 ± 0.1.

**Q.** What about the “BAL cytokine concentration KC” value (PBS group, mut-sFasL 100) of the same molecule?
**A.** Its value is 1.9 ± 0.9.

**Q.** What about the “BAL cytokine concentration MIP-1α” value (PBS group, mut-sFasL 100) of the same molecule?
**A.** The value was 0.29 ± 0.28.

**Q.** And the “BAL cytokine concentration MIP-2” value (PBS group, mut-sFasL 100)?
**A.** The value was 2.3 ± 2.8.

**Q.** And the “lung apoptosis or permeability measurements” value (PBS-treated mice)?
**A.** Its value is “did not lead to an increase in lung apoptosis or permeability measurements”.

**Q.** And the “effect of early administration” value (early group (mut-sFasL 4 hours after LPS, euthanized 24 h))?
**A.** Its value is “no measurable effect”.

**Q.** What about the “BAL concentration of MCP-1” value (late group) of the same molecule?
**A.** Its value is “decrease; also recorded: reduced”.

**Q.** What about the “BAL concentration of MIP-1β” value (late group) of the same molecule?
**A.** Its value is “decrease; also recorded: reduced”.

**Q.** What about the “BAL concentration of TNF-α” value (late group) of the same molecule?
**A.** Its value is “decrease; also recorded: reduced”.

**Q.** And the “BAL total cell counts” value (late group (mut-sFasL 24 h after LPS, euthanized 48 h), 100 ng/mL, 100 ng/g)?
**A.** Its value is “decreased; also recorded: reduced”.

**Q.** What about the “total lung (homogenate) MPO activity” value (late group, doses of 30 and 100 ng/mL, 100 ng/g) of the same molecule?
**A.** Its value is “significantly decreased; also recorded: reduced”.

**Q.** And the “pro-injury or pro-inflammatory effects” value?
**A.** The value was “did not have important pro-injury or pro-inflammatory effects at any dose”.

**Q.** What about the “pro-injury or pro-inflammatory effects” value (listed as sFasL with mutated stalk region) of the same molecule?
**A.** The value was “not injurious in normal lungs”.
